Data taken from patent US20230201308A1, “TREATMENT OF CORONAVIRUS INFECTION WITH […]” (Eiger Biopharmaceuticals, Inc., priority 2020, published 2023).
Where two headings read alike, the source gives them in different places.

Test system: SARS-CoV-2
[1] = High risk population, Brazil and Toronto, N = 709
[2] = High risk population, Brazil and Toronto, N = 709 vs placebo N = 836
[3] = High risk population, Brazil, N = 698

B1: pegylated interferon lambda-1a (protein)
chain: MKPTTTGKGCHIGRFKSLSPQELASFKKARDALEESLKLKNWSCSSPVFPGNWDLRLLQVRERPVALEAELALTLKVLEAAAGPALEDVLDQPLHTLHHILSQLQACIQPQPTAGPRPRGRLHHWLHRLQEAPKKESAGCLEASVTFNLFRLLTRDLKYVADGNLSLRTSTHPEST
modifications: PEG
notes: 180 mcg subcutaneous injection
With B1 the “ER visit ≥6 h or hospitalization due to COVID-19: events/patients” value (All) was 25/931, the “All cause death or hospitalization for COVID-19: events/patients” value (All, Brazil+Toronto) was 24/931 and the “All cause death or hospitalization for COVID-19: Bayes prob, Dichotomous” value (All, vs placebo) was 0.951. The “All cause death or hospitalization for COVID-19: Bayes prob, TTE” value (All, vs placebo) was 0.9557, the “All cause death or hospitalization for COVID-19: HR (95% CrI), TTE” value (All, vs placebo) was 0.65 (0.39, 1.05) and the “All cause death or hospitalization for COVID-19: RR (95% CrI), Dichotomous” value (All, vs placebo) was 0.66 (0.40, 1.07). For the same molecule, the “ER visit ≥6 h or hospitalization due to COVID-19: Bayes prob, Dichotomous” value (All, vs placebo) was 0.999, the “ER visit ≥6 h or hospitalization due to COVID-19: Bayes prob, TTE” value (All, vs placebo) was 0.9995 and the “ER visit ≥6 h or hospitalization due to COVID-19: HR (95% CrI), TTE” value (All, vs placebo) was 0.47 (0.29, 0.73). For the same molecule, the “ER visit ≥6 h or hospitalization due to COVID-19: RR (95% CrI), Dichotomous” value (All, vs placebo) was 0.49 (0.30, 0.76), the “HR, all-cause mortality or hospitalization due to COVID-19, Time-to-Event analysis” value (Brazil+Toronto combined) was 0.65 and the “RR, all-cause mortality or hospitalization due to COVID-19” value (Brazil+Toronto combined) was 0.66. For the same molecule, the “All cause ER visit >6 h, hospitalization, or death: percentage” value [1] was “(4.2%)”, the “All cause ER visit >6 h, hospitalization, or death: total” value [1] was 30 and the “All cause ER visit, hospitalization, or death: percentage” value [1] was “(13.7%)”. For the same molecule, the “All cause ER visit, hospitalization, or death: total” value [1] was 97, the “All cause death or hospitalization due to COVID-19: percentage” value [1] was “(3.1%)” and the “All cause death or hospitalization due to COVID-19: total” value [1] was 22. The Days of hospitalization [1] was 0 days, the “Days on mechanical ventilation” value [1] was 0 days and the “Days to recovery: median” value [1] was 14 days. The “Death due to COVID-19: percentage” value [1] was “(0.1%)”, the “Death due to COVID-19: total” value [1] was 1 and the “Death or hospitalization due to COVID-19: percentage” value [1] was “(2.8%)”. The “Death or hospitalization due to COVID-19: total” value [1] was 20, the “Hospitalization for COVID-19 (excluding those resulting in death): percentage” value [1] was “(2.7%)” and the “Hospitalization for COVID-19 (excluding those resulting in death): total” value [1] was 19. The “Hospitalization or ER (any duration) for COVID-19: percentage” value [1] was “(10.7%)”, the “Hospitalization or ER (any duration) for COVID-19: total” value [1] was 76 and the “Hospitalization or ER >6 h for COVID-19: percentage” value [1] was “(3.1%)”. For the same molecule, the “Hospitalization or ER >6 h for COVID-19: total” value [1] was 22, the “Mechanical ventilation: percentage” value [1] was “(0.6%)” and the “Mechanical ventilation: total” value [1] was 4. The “All cause ER visit >6 h, hospitalization, or death: Pr (Superiority)” value [2] was 0.983, the “All cause ER visit >6 h, hospitalization, or death: RR (95% CrI), estimated treatment effect” value [2] was 0.64 (0.41, 0.97) and the “All cause ER visit, hospitalization, or death: Pr (Superiority)” value [2] was 0.887. The “All cause ER visit, hospitalization, or death: RR (95% CrI), estimated treatment effect” value [2] was 0.86 (0.68, 1.10), the “All cause death or hospitalization due to COVID-19: Pr (Superiority)” value [2] was 0.927 and the “All cause death or hospitalization due to COVID-19: RR (95% CrI), estimated treatment effect” value [2] was 0.69 (0.41, 1.14). For the same molecule, the “Days of hospitalization: MD (95% CrI), estimated treatment effect” value [2] was −1.39 (−4.38, 1.20), the “Days of hospitalization: Pr (Superiority)” value [2] was 0.8509 and the “Days on mechanical ventilation: MD (95% CrI), estimated treatment effect” value [2] was −4.47 (−6.89, 3.09). For the same molecule, the “Days on mechanical ventilation: Pr (Superiority)” value [2] was 0.9052, the “Days to death for COVID-19: HR (95% CrI), estimated treatment effect” value [2] was 0.23 (0.01, 1.95) and the “Days to death for COVID-19: Pr (Superiority)” value [2] was 0.9040. The “Days to hospitalization for COVID-19: HR (95% CrI), estimated treatment effect” value [2] was 0.57 (0.33, 0.99), the “Days to hospitalization for COVID-19: Pr (Superiority)” value [2] was 0.9770 and the “Days to hospitalization or ER visit >6 h for COVID-19: HR (95% CrI), estimated treatment effect” value [2] was 0.47 (0.29, 0.74). For the same molecule, the “Days to hospitalization or ER visit >6 h for COVID-19: Pr (Superiority)” value [2] was 0.9992, the “Days to hospitalization or death for COVID-19: HR (95% CrI), estimated treatment effect” value [2] was 0.61 (0.35, 1.07) and the “Days to hospitalization or death for COVID-19: Pr (Superiority)” value [2] was 0.9610. The “Days to recovery: HR (95% CrI), estimated treatment effect” value [2] was 0.93 (0.83, 1.04), the “Days to recovery: Pr (Superiority)” value [2] was 0.8862 and the “Death due to COVID-19: Pr (Superiority)” value [2] was 0.847. For the same molecule, the “Death due to COVID-19: RR (95% CrI), estimated treatment effect” value [2] was 0.42 (0.05, 2.06), the “Death or hospitalization due to COVID-19: Pr (Superiority)” value [2] was 0.961 and the “Death or hospitalization due to COVID-19: RR (95% CrI), estimated treatment effect” value [2] was 0.63 (0.37, 1.05). For the same molecule, the “Hospitalization for COVID-19 (excluding those resulting in death): Pr (Superiority)” value [2] was 0.931, the “Hospitalization for COVID-19 (excluding those resulting in death): RR (95% CrI), estimated treatment effect” value [2] was 0.67 (0.38, 1.14) and the “Hospitalization or ER (any duration) for COVID-19: Pr (Superiority)” value [2] was 0.992. The “Hospitalization or ER (any duration) for COVID-19: RR (95% CrI), estimated treatment effect” value [2] was 0.72 (0.55, 0.94), the “Hospitalization or ER >6 h for COVID-19: Pr (Superiority)” value [2] was 0.999 and the “Hospitalization or ER >6 h for COVID-19: RR (95% CI), estimated treatment effect” value [2] was 0.49 (0.30, 0.78). For the same molecule, the “Mechanical ventilation: Pr (Superiority)” value [2] was 0.716, the “Mechanical ventilation: RR (95% CrI), estimated treatment effect” value [2] was 0.72 (0.21, 2.20) and the “All cause ER visit >6 h, hospitalization, or death: percentage” value [3] was “(4.3%)”. For the same molecule, the “All cause ER visit >6 h, hospitalization, or death: total” value [3] was 30, the “All cause ER visit, hospitalization, or death: percentage” value [3] was “(13.9%)” and the “All cause ER visit, hospitalization, or death: total” value [3] was 97. The “All cause death or hospitalization due to COVID-19: percentage” value [3] was “(3.2%)”, the “All cause death or hospitalization due to COVID-19: total” value [3] was 22 and the Days of hospitalization [3] was 0 days. For the same molecule, the “Days on mechanical ventilation” value [3] was 0 days, the “Days to recovery: median” value [3] was 14 days and the “Death due to COVID-19: percentage” value [3] was “(0.1%)”. For the same molecule, the “Death due to COVID-19: total” value [3] was 1, the “Death or hospitalization due to COVID-19: percentage” value [3] was “(2.9%)” and the “Death or hospitalization due to COVID-19: total” value [3] was 20. For the same molecule, the “Hospitalization for COVID-19 (excluding those resulting in death): percentage” value [3] was “(2.7%)”, the “Hospitalization for COVID-19 (excluding those resulting in death): total” value [3] was 19 and the “Hospitalization or ER (any duration) for COVID-19: percentage” value [3] was “(10.9%)”.
